T1: His-MBP-Lin28TT (Homo sapiens, UniProt Q9H9Z2 32-187)
T1 sequence: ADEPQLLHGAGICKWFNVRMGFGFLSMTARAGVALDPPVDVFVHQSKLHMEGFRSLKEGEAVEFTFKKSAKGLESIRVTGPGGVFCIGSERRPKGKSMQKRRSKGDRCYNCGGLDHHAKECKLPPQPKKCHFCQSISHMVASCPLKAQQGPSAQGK


Tests used:
[1] = molecular target: T1, His-MBP-Lin28TT; assay: fluorescence anisotropy; 50 uM ZnCl2; FA: 20 nM 5'-fluorescein RNA, 20 mM Tris-HCl pH 7.5, 50-750 mM NaCl (100 mM for the main miR-363 Kd), 10 mM beta-mercaptoethanol, 50 uM ZnCl2, 0.01% Tween 20, 2
[2] = molecular target: T1, His-MBP-Lin28TT; assay: fluorescence anisotropy; 750 mM NaCl; 50 uM ZnCl2; FA: 20 nM 5'-fluorescein RNA, 20 mM Tris-HCl pH 7.5, 50-750 mM NaCl (100 mM for the main miR-363 Kd), 10 mM beta-mercaptoethanol, 50 uM ZnCl2, 0.01% Tween 20, 2
[3] = molecular target: T1, His-MBP-Lin28TT; assay: fluorescence anisotropy; 100 mM NaCl; 50 uM ZnCl2; FA: 20 nM 5'-fluorescein RNA, 20 mM Tris-HCl pH 7.5, 50-750 mM NaCl (100 mM for the main miR-363 Kd), 10 mM beta-mercaptoethanol, 50 uM ZnCl2, 0.01% Tween 20, 2
[4] = molecular target: T1, His-MBP-Lin28TT; assay: fluorescence anisotropy; 500 mM NaCl; 50 uM ZnCl2; FA: 20 nM 5'-fluorescein RNA, 20 mM Tris-HCl pH 7.5, 50-750 mM NaCl (100 mM for the main miR-363 Kd), 10 mM beta-mercaptoethanol, 50 uM ZnCl2, 0.01% Tween 20, 2
[5] = molecular target: T1, His-MBP-Lin28TT; assay: fluorescence anisotropy; 250 mM NaCl; 50 uM ZnCl2; FA: 20 nM 5'-fluorescein RNA, 20 mM Tris-HCl pH 7.5, 50-750 mM NaCl (100 mM for the main miR-363 Kd), 10 mM beta-mercaptoethanol, 50 uM ZnCl2, 0.01% Tween 20, 2

Binder | Kd [1] | Kd [2] | Kd [3] | Kd [4] | Kd [5]
CGGGUCUAUGAUACCACCCGGUACAGGAG (structured_RNA) [let-7g 29-57] | 54.1 ± 4.2 nM | – | – | – | –
GAUGCAAUUUUGAUGAGUAUCAUAGGAG (structured_RNA) [miR-363 19-46] | – | 12.4 ± 1.1 nM | 16.6 ± 1.9 nM | 8 ± 0.8 nM | 6.6 ± 0.9 nM

Source: paper PMC5193468
